Experimental data from PMC11291478, “Molecular and structural basis of an ATPase-nuclease dual-enzyme anti-phage defense complex” (Cell Research, 2024).
Several values for one entry are separate records, joined by “and”; a condition that tells them apart may be missing. Equal entries are not always repeated. Each block holds one molecule with its values, some of them ahead of it.

Legend:
[1] = biological target: DUF4297
[2] = biological target: HerA; experiment: cryo-EM structure; purified DUF4297–HerA complex with 1 mM AMPPNP, 5 mM MgCl2 and 59-bp dsDNA (1:1.2); state 1 at 2.73 Å and state 2 at 2.92 Å
[3] = biological target: DUF4297; experiment: cryo-EM structure; co-expressed and purified DUF4297–HerA complex without nucleotide or DNA, ~1.0 mg/mL, C2 symmetry imposed, 2.87 Å
[4] = biological target: HerA; experiment: as above
[5] = biological target: HerA; experiment: cryo-EM structure; HerA alone, ~1.0 mg/mL, 3.14 Å
[6] = biological target: T1, DUF4297–HerA complex (Escherichia coli, UniProt A0ABF7PQ56); experiment: cryo-EM structure; format: binding; conditions: with 59-bp dsDNA, 1 mM AMPPNP, 5 mM MgCl2; site at interface of RecA-like domains of adjacent HerA subunits; states 1 and 2
T1 construct: gene CG692_10950; co-expressed in E. coli BL21(DE3) from pET28a, His tag at N-terminus of DUF4297; about 1 MDa complex of 12 DUF4297 and 6 HerA; with DUF4297 domain-containing protein (dsDNA endonuclease Cap4-like domain-containing anti-phage protein)
T1 sequence (A0ABF7PQ56 1-571): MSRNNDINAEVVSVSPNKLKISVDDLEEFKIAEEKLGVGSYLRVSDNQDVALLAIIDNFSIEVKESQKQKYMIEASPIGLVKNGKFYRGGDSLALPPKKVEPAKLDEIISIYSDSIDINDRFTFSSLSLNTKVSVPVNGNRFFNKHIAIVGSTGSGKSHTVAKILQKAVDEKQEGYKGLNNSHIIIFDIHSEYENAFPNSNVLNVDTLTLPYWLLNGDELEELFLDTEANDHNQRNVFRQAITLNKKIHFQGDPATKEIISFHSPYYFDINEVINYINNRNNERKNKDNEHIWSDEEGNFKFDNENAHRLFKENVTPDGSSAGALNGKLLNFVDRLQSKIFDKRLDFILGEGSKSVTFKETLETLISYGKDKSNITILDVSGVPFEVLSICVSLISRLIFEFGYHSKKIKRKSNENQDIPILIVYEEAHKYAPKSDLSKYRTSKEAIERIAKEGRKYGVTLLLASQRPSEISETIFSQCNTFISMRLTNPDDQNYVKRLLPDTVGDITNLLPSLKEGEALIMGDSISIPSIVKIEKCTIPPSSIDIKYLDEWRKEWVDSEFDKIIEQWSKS
T1 sequence (A0ABF7PQ57 1-394 partner): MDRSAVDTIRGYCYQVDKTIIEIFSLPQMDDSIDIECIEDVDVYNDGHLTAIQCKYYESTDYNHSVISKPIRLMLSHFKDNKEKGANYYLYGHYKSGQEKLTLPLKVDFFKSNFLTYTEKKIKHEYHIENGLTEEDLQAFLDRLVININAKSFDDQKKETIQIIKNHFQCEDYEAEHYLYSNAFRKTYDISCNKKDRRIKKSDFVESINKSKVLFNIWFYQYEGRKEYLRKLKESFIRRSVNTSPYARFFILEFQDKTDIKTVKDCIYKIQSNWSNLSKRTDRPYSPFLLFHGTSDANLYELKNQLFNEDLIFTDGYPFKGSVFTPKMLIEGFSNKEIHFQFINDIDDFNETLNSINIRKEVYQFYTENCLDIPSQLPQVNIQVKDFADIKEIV

[7] = biological target: T1, DUF4297–HerA complex; experiment: phosphate release, modified Baginski method; format: biochemical; conditions: 5 nM complex, 20 mM Tris-HCl pH 8.0, 50 mM NaCl, 5 mM MgCl2, 5 mM DTT, 37 °C
[8] = biological target: DUF4297; experiment: AUC; sedimentation velocity, 55,000 rpm, 4 °C, ~1 mg/mL, 20 mM Tris-HCl pH 8.0, 500 mM NaCl

- fold decrease in dsDNA nuclease activity of DUF4297 alone against the DUF4297–HerA complex [1]: 300 fold
- stoichiometry N [2]: 6
- stoichiometry N (DUF4297 per HerA) [3]: 2
- stoichiometry N [4]: 6
- stoichiometry N [5]: 6 and 5
Molecule: HerA (enzyme)

Molecule: Nc1ncnc2c1ncn2[C@@H]1O[C@H](COP(=O)(O)OP(=O)(O)NP(=O)(O)O)[C@@H](O)[C@H]1O [AMPPNP]
- cryo-EM structure [6]: three DNA-engaged subunits A–C bind ATP (AMPPNP in the structure)

Molecule: Nc1ncnc2c1ncn2[C@@H]1O[C@H](COP(=O)(O)OP(=O)(O)OP(=O)(O)O)[C@@H](O)[C@H]1O [ATP]
- phosphate release, modified Baginski method [7]: the DUF4297–HerA complex exhibits a high turnover rate under the same testing condition

- stoichiometry N [8]: 2
Molecule: DUF4297 (enzyme)
